The assay concerns PBMCs. As to the kind of experiment: Cytokine secretion from PBMCs stimulated with nuclease-treated live C. acnes (ELISA). In kind it is cell-based, human. The conditions noted are these: live C. acnes digested with nuclease at 37° C. for 1 hour, PBMCs stimulated 24 h. As to the method: FIGS. 3A-3D: PBMCs were stimulated with untreated, heat-killed (HK), Rnase I, or Dnase I treated live CA(HL5PA1), CH (HL110PA4), LPS, or 19 kD (TLR1/2L) for 24 h. Cytokine secretions were measured by ELISA.
Cells purification and culture. Whole blood was obtained from healthy donors who provided written informed consent (UCLA Institutional Review Board). PBMCs were isolated by Ficoll-Paque (Amersham Bioscience) density gradient centrifugation and cultured in RPMI 1640 (Gibco) supplemented with 10% fetal bovine serum (FBS) (Seradigm) at a density of 2.5×10^6/mL in a 24-well flat bottomed plate.
Bacterial treatment. Live bacteria were heat-killed at 95° C. for 10 minutes and cooled on ice before addition of bacteria to cell culture. Live bacteria were digested using RNase I (Promega) or DNase I (Invitrogen) and incubated at 37° C. for 1 hour. Nucleases were inactivated with 0.1% SDS.
Cytokine Quantification. Cell culture supernatants were harvested at 24 hours unless otherwise noted. Cytokines measured by sandwich ELISA using antibody pairs were as follows: IL-18, IL-1β, IFN-β (R&D Duoset), IFN-γ (BD), IL-6, IL-10, TNF-α (Invitrogen).

B1: RNase I: RNase I (Promega), enzyme that catalyzes the hydrolysis of RNA; used to digest live bacteria (protein, UniProt P21338 24-268, looked up)
Ribonuclease I: LALQAKQYGDFDRYVLALSWQTGFCQSQHDRNRNERDECRLQTETTNKADFLTVHGLWPGLPKSVAARGVDERRWMRFGCATRPIPNLPEARASRMCSSPETGLSLETAAKLSEVMPGAGGRSCLERYEYAKHGACFGFDPDAYFGTMVRLNQEIKESEAGKFLADNYGKTVSRRDFDAAFAKSWGKENVKAVKLTCQGNPAYLTEIQISIKADAINAPLSANSFLPQPHPGNCGKTFVIDKAGY
Take B1: the “IFN-γ secretion from PBMCs” value is given as “eliminated”, the “IL-6 secretion from PBMCs” value is on record as “eliminated”, the “IL-10 secretion from PBMCs” value is “eliminated” and the “TNF-α secretion from PBMCs” value was “eliminated”. The “IFN-γ secretion from PBMCs” value (listed as RNase) was “abrogated”.

The values are drawn from patent US20220143153A1, “COMPOSITIONS AND METHODS FOR TREATING ACNE” (priority 2019, published 2022).
